# Experimental data reported in US20090155205A1.
# Columns and labels:
# [1] = molecular target: recombinant human TNFα (rhTNFα) (human) (UniProt P01375); test: SPR BIAcore, biotin-rhTNFα immobilized, average of the series
# [2] = molecular target: recombinant human TNFα (rhTNFα) (human) (UniProt P01375); test: SPR BIAcore, biotin-rhTNFα immobilized, Ab 3 nM
# [3] = molecular target: recombinant human TNFα (rhTNFα) (human) (UniProt P01375); test: SPR BIAcore, biotin-rhTNFα immobilized, Ab 50 nM
# [4] = molecular target: recombinant human TNFα (rhTNFα) (human) (UniProt P01375); test: cell-based or functional assay
# [5] = molecular target: recombinant human TNFα (rhTNFα) (human) (UniProt P01375); test: SPR BIAcore, biotin-rhTNFα immobilized, Ab 6 nM
# [6] = molecular target: recombinant human TNFα (rhTNFα) (human) (UniProt P01375); test: SPR BIAcore, biotin-rhTNFα immobilized, Ab 200 nM
# [7] = molecular target: recombinant human TNFα (rhTNFα) (human) (UniProt P01375); test: SPR BIAcore, biotin-rhTNFα immobilized, Ab 13 nM
# [8] = molecular target: recombinant human TNFα (rhTNFα) (human) (UniProt P01375); test: SPR BIAcore, biotin-rhTNFα immobilized, Ab 400 nM
# [9] = molecular target: recombinant human TNFα (rhTNFα) (human) (UniProt P01375); test: SPR BIAcore, biotin-rhTNFα immobilized, Ab 25 nM
# [10] = molecular target: recombinant human TNFα (rhTNFα) (human) (UniProt P01375); test: SPR BIAcore, biotin-rhTNFα immobilized, Ab 100 nM
# [11] = molecular target: recombinant human TNFα (rhTNFα) (human) (UniProt P01375); test: SPR BIAcore, summary table
# Sequence of recombinant human TNFα (rhTNFα) (human) (P01375 77-233 limits assumed): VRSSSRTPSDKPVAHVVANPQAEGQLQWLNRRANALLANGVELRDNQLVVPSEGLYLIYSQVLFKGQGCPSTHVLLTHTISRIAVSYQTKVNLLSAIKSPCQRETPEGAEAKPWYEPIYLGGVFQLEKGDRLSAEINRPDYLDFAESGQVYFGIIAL
substance,measurement,setting,value
MAK 195 F(ab′)2,koff,[1],4.94e-05 s⁻¹
same,"Ab, bound, RUs",[2],231 RUs
same,koff,[2],6.95e-05 s⁻¹
same,rhTNFα/Ab,[2],0.26
same,"Ab, bound, RUs",[3],1110 RUs
same,koff,[3],3.67e-05 s⁻¹
same,rhTNFα/Ab,[3],1.32
same,"IC50, neutralization of TNFα-induced L929 cytotoxicity",[4],0.062 nM
same,"Ab, bound, RUs",[5],433 RUs
same,koff,[5],7.37e-05 s⁻¹
same,rhTNFα/Ab,[5],0.47
same,"Ab, bound, RUs",[6],1080 RUs
same,koff,[6],4.54e-05 s⁻¹
same,rhTNFα/Ab,[6],1.38
same,"Ab, bound, RUs",[7],708 RUs
same,koff,[7],3.66e-05 s⁻¹
same,rhTNFα/Ab,[7],0.78
same,"Ab, bound, RUs",[8],881 RUs
same,koff,[8],5.38e-05 s⁻¹
same,rhTNFα/Ab,[8],1.2
same,"Ab, bound, RUs",[9],957 RUs
same,koff,[9],4.41e-05 s⁻¹
same,rhTNFα/Ab,[9],1.09
same,"Ab, bound, RUs",[10],1140 RUs
same,koff,[10],3.54e-05 s⁻¹
same,rhTNFα/Ab,[10],1.39
same,Kd,[11],0.46 nM
same,Stoichiometry,[11],1.4
same,koff,[11],8.7e-05 s⁻¹
same,kon,[11],190000 M⁻¹ s⁻¹
